Source: patent US20230380451A1, “MEANS AND METHODS TO DETOXIFY MYCOTOXINS” (priority 2020, published 2023)

Columns and labels:
[1] = format: biochemical; details: for pH of maximum DON degradation activity (pH optimum): pH 2 to pH 10 tested, 30° C.
Description: (§1) To determine the transformation of DON to epi-THS by Akr I-III, described herein, the following assay was performed. An assay buffer was prepared containing 40 ppm DON, 1 mM NADPH in Teorell Stenhagen (TS) buffer, pH 6.0 (Östling and Virtama, Acta Physiologica Scandinavica, 1946, 11:4, 289-293). Tubes containing the assay buffer were transferred in a heating block at 30° C. The reaction was started by addition of Akr I-III to a final concentration of 200 nM in a final reaction volume of 200 μL. Samples were taken before reaction start, and 2, 5, 10, 15 and 20 min after reaction start. DON transformation reactions in these samples were stopped by mixing with absolute methanol at a 1:2 ratio, followed by a 1:100 dilution with 40% methanol. The concentrations of DON and epi-THS in the samples were determined with liquid chromatography-mass spectrometry (LC-MS) on a Sciex 5500 triple quadrupole mass spectrometer coupled to Agilent 1290 series UHPLC system, using the following MS parameters: Acquisition duration: 4 min; Scan Type: MRM (MRM); Polarity: Negative; Ion Source: Turbo Spray.
For LC, eluent A was 5% methanol, 94.9% water (ultrapure), 0.1% acetic acid, and eluent B was 99.9% methanol, 0.1% acetic acid, using a Phenomenex Kinetex 2.6 μm biphenyl 150×2.1 mm column, an injection volume of 1 μL and the protocol shown in Table 3.
By applying the DON transformation assay basically as described in Example 3, but at pH values ranging from pH 2 to pH 10, the pH optima for DON degradation of Akr I-III (SEQ ID NOs: 1-3) were determined. Akr I and Akr II reached maximum activities at pH 6.0, Akr III at pH 6.5.
By applying the DON transformation assay basically as described in Example 3, but at different temperatures ranging from 14.9° C. to 55.7° C., the temperature optima for the DON degradation activities of Akr I-III were determined. Akr I maximum activity was shown at approximately 35° C., Akr II at approximately 31° C., and Akr III at temperatures from approximately 28° C. to 33° C. (see FIG. 4). […] For Akr I even at temperatures below 20° C.

[2] = Storage stability at different pH values, residual DON transformation activity; format: biochemical; details: storage at 30° C.
Description: as §1
The storage stability of Akr I-III at different pH values was tested by incubating 1 μM enzyme in TS buffer solutions with a pH of 3.0-10.0 for 4 h at 30° C. in standard 1.5 ml Eppendorf tubes. Every hour, a DON transformation assay was conducted as described in Example 3. The starting activity at time 0 min was set to 100% and the relative residual activities were determined throughout the incubation. For the DON transformation assays, 80 μl of the storage solution were added to an assay reaction with a final volume of 400 μl, which corresponds to a 1:5 dilution of the storage solution. Akr I retained more than 93% activity during 4 hours at 30° C. from pH 4.0-10.0. Akr II retained 30% to 93% activity during 4 hours at 30° C. from pH […] retained 27% to 85% activity during 4 hours at 30° C. from pH 4.0-9.0. Akr I-III retained more than 40% of their activity for 4 hours at 30° C. from pH 4.0 to pH 8.0.

[3] = pH 3.0, 0 h (starting activity set to 100%)
[4] = pH 4.0, 0 h (starting activity set to 100%)
[5] = pH 5.0, 0 h (starting activity set to 100%)
[6] = pH 6.0, 0 h (starting activity set to 100%)
[7] = pH 7.0.0, 0 h (starting activity set to 100%)
[8] = pH 8.0, 0 h (starting activity set to 100%)
[9] = pH 9.0.0, 0 h (starting activity set to 100%)
[10] = pH 10.0, 0 h (starting activity set to 100%)

B1: Akr II: artificial amino acid sequence, variant of a wild type aldo-keto reductase (protein)
chain: MRTTEIAQGLKVSNLCIGAGPLGGMPTAFGYDVSEERGIATVQAVFDSPINFMDTSSEYGGSEARIGKVIREGLMPKGFVISSKADAEGEGVGRRGDFSAKQVRASFELSLERLGLTHLDVYFLHDPEKFPFEQVMARGGAMEELLRLKDEGLVGLVGVAGGDVLEMARYVDTGSLDILLNYGRYTLLDRSADSLITKVSDAGMAFLNAGPYASGLLAAPRGGSAWYQYAPPDATALQAVDQLHELCESFDVSLRSVALQFSMRDPRITSTVVGLSRPERVRALLDDEAAEIPAELWEQLPAPLNGDIVLPG
modifications: ArkII
[1]; 14.9° C. to 55.7° C. tested
  temperature of maximum DON degradation activity (temperature optimum): approximately 31 °C
[1]
  pH of maximum DON degradation activity (pH optimum): 6.0
[2]; [3]
  Relative DON-transformation activity: 100.0%
[2]; pH 3.0, 1 h
  Relative DON-transformation activity: 34.5%
[2]; pH 3.0, 2 h
  Relative DON-transformation activity: 1.1%
[2]; pH 3.0, 3 h
  Relative DON-transformation activity: 0.0%
[2]; pH 3.0, 4 h
  Relative DON-transformation activity: 0.0%
[2]; [4]
  Relative DON-transformation activity: 100.0%
[2]; pH 4.0, 1 h
  Relative DON-transformation activity: 99.3%
[2]; pH 4.0, 2 h
  Relative DON-transformation activity: 96.6%
[2]; pH 4.0, 3 h
  Relative DON-transformation activity: 87.1%
[2]; pH 4.0, 4 h
  Relative DON-transformation activity: 89.0%
[2]; [5]
  Relative DON-transformation activity: 100.0%
[2]; pH 5.0, 1 h
  Relative DON-transformation activity: 100.1%
[2]; pH 5.0, 2 h
  Relative DON-transformation activity: 99.8%
[2]; pH 5.0, 3 h
  Relative DON-transformation activity: 99.3%
[2]; pH 5.0, 4 h
  Relative DON-transformation activity: 92.4%
[2]; [6]
  Relative DON-transformation activity: 100.0%
[2]; pH 6.0, 1 h
  Relative DON-transformation activity: 77.3%
[2]; pH 6.0, 2 h
  Relative DON-transformation activity: 85.1%
[2]; pH 6.0, 3 h
  Relative DON-transformation activity: 77.6%
[2]; pH 6.0, 4 h
  Relative DON-transformation activity: 61.8%
[2]; [7]
  Relative DON-transformation activity: 100.0%
[2]; pH 7.0.0, 1 h
  Relative DON-transformation activity: 79.6%
[2]; pH 7.0.0, 2 h
  Relative DON-transformation activity: 64.5%
[2]; pH 7.0.0, 3 h
  Relative DON-transformation activity: 56.9%
[2]; pH 7.0.0, 4 h
  Relative DON-transformation activity: 57.4%
[2]; [8]
  Relative DON-transformation activity: 100.0%
[2]; pH 8.0, 1 h
  Relative DON-transformation activity: 85.1%
[2]; pH 8.0, 2 h
  Relative DON-transformation activity: 68.3%
[2]; pH 8.0, 3 h
  Relative DON-transformation activity: 53.2%
[2]; pH 8.0, 4 h
  Relative DON-transformation activity: 40.9%
[2]; [9]
  Relative DON-transformation activity: 100.0%
[2]; pH 9.0.0, 1 h
  Relative DON-transformation activity: 76.5%
[2]; pH 9.0.0, 2 h
  Relative DON-transformation activity: 54.7%
[2]; pH 9.0.0, 3 h
  Relative DON-transformation activity: 36.1%
[2]; pH 9.0.0, 4 h
  Relative DON-transformation activity: 29.9%
[2]; [10]
  Relative DON-transformation activity: 100.0%
[2]; pH 10.0, 1 h
  Relative DON-transformation activity: 54.4%
[2]; pH 10.0, 2 h
  Relative DON-transformation activity: 37.7%
[2]; pH 10.0, 3 h
  Relative DON-transformation activity: 13.9%
[2]; pH 10.0, 4 h
  Relative DON-transformation activity: 7.2%

B2: Akr III: artificial amino acid sequence, variant of a wild type aldo-keto reductase (protein)
chain: MRTTEIAQGLKVSNLCIGAGPLGGMPTAFGYDVSEERGIATVQAVFDSPINFMDTSSEYGGSEARIGKVIREGRMPKGFVISSKADAEGEGVGRRGDFSAKQVRASFELSLERLGLTHLDVYFLHDPEKFPFEQVMARGGAMEELLRLKDEGLVGLVGVAGGDVLEMARYVDTGSLDILLNYGRYTILDRSADSLITKVSDAGMAFLNAGPYASGLLAAPRGGSAWYQYAPPDATALQAVDQLHELCESFDVSLRSVALQFSMRDPRITSTVVGLSRPERVRALLDDEAAEIPAELWEQLPAPLNGDIVLPR
modifications: ArkIII
[1]
  pH of maximum DON degradation activity (pH optimum): 6.5
[2]; [3]
  Relative DON-transformation activity: 100.0%
[2]; pH 3.0, 1 h
  Relative DON-transformation activity: 13.5%
[2]; pH 3.0, 2 h
  Relative DON-transformation activity: 19.3%
[2]; pH 3.0, 3 h
  Relative DON-transformation activity: 0.0%
[2]; pH 3.0, 4 h
  Relative DON-transformation activity: 0.0%
[2]; [4]
  Relative DON-transformation activity: 100.0%
[2]; pH 4.0, 1 h
  Relative DON-transformation activity: 95.1%
[2]; pH 4.0, 2 h
  Relative DON-transformation activity: 84.4%
[2]; pH 4.0, 3 h
  Relative DON-transformation activity: 74.8%
[2]; pH 4.0, 4 h
  Relative DON-transformation activity: 57.7%
[2]; [5]
  Relative DON-transformation activity: 100.0%
[2]; pH 5.0, 1 h
  Relative DON-transformation activity: 97.7%
[2]; pH 5.0, 2 h
  Relative DON-transformation activity: 96.3%
[2]; pH 5.0, 3 h
  Relative DON-transformation activity: 90.7%
[2]; pH 5.0, 4 h
  Relative DON-transformation activity: 85.2%
[2]; [6]
  Relative DON-transformation activity: 100.0%
[2]; pH 6.0, 1 h
  Relative DON-transformation activity: 97.8%
[2]; pH 6.0, 2 h
  Relative DON-transformation activity: 94.9%
[2]; pH 6.0, 3 h
  Relative DON-transformation activity: 93.1%
[2]; pH 6.0, 4 h
  Relative DON-transformation activity: 78.9%
[2]; [7]
  Relative DON-transformation activity: 100.0%
[2]; pH 7.0.0, 1 h
  Relative DON-transformation activity: 93.0%
[2]; pH 7.0.0, 2 h
  Relative DON-transformation activity: 91.3%
[2]; pH 7.0.0, 3 h
  Relative DON-transformation activity: 85.1%
[2]; pH 7.0.0, 4 h
  Relative DON-transformation activity: 74.0%
[2]; [8]
  Relative DON-transformation activity: 100.0%
[2]; pH 8.0, 1 h
  Relative DON-transformation activity: 94.2%
[2]; pH 8.0, 2 h
  Relative DON-transformation activity: 77.9%
[2]; pH 8.0, 3 h
  Relative DON-transformation activity: 69.0%
[2]; pH 8.0, 4 h
  Relative DON-transformation activity: 57.6%
[2]; [9]
  Relative DON-transformation activity: 100.0%
[2]; pH 9.0.0, 1 h
  Relative DON-transformation activity: 76.3%
[2]; pH 9.0.0, 2 h
  Relative DON-transformation activity: 61.3%
[2]; pH 9.0.0, 3 h
  Relative DON-transformation activity: 54.1%
[2]; pH 9.0.0, 4 h
  Relative DON-transformation activity: 27.4%
[2]; [10]
  Relative DON-transformation activity: 100.0%
[2]; pH 10.0, 1 h
  Relative DON-transformation activity: 47.0%
[2]; pH 10.0, 2 h
  Relative DON-transformation activity: 27.1%
[2]; pH 10.0, 3 h
  Relative DON-transformation activity: 17.0%
[2]; pH 10.0, 4 h
  Relative DON-transformation activity: 15.4%
